Data from PMC10691244, “The mechanism of Gαq regulation of PLCβ3-catalyzed PIP2 hydrolysis” (Proceedings of the National Academy of Sciences of the …, 2023).

Molecular target: T1, Phospholipase Cβ3 (PLCβ3), wild type (UniProt Q01970 10-1234)
T1 construct: Phospholipase Cβ3; The CTD linker and distal CTD are disordered in the structures; also called wild-type PLCβ3
T1 sequence: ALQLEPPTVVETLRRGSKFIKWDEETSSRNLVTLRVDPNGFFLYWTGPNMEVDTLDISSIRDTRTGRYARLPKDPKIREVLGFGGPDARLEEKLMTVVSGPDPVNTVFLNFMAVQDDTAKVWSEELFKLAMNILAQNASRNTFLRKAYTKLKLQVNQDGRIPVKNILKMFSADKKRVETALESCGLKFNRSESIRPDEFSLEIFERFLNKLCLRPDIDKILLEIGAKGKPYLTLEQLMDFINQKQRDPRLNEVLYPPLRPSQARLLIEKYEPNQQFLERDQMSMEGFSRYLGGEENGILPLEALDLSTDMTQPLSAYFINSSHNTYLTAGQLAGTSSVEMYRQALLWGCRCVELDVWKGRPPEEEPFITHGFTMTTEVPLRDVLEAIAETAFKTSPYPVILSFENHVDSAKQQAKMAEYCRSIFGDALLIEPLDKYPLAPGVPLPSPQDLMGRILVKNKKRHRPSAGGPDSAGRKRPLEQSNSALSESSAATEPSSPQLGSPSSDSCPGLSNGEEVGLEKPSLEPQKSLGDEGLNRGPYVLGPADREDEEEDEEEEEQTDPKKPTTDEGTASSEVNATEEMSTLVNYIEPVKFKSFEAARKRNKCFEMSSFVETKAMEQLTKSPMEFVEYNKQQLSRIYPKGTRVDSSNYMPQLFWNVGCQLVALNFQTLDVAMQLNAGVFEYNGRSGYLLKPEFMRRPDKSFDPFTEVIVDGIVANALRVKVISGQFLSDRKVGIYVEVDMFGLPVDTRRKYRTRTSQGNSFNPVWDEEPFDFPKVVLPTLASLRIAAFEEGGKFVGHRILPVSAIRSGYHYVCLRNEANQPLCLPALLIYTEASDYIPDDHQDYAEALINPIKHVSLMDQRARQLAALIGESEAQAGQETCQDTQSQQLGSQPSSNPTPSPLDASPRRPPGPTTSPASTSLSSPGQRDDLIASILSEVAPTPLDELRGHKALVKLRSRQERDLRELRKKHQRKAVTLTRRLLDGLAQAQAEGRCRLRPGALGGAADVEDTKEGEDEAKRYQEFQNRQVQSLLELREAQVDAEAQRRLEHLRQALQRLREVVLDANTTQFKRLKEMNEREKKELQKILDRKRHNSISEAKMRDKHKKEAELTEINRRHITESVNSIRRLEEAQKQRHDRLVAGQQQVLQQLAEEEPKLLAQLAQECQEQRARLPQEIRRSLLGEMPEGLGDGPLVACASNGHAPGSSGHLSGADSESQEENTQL
Assay: cryo-EM structure; PLCβ3 mixed with wildtype Gαq bound to GDP-AlF4, then added to 2DOPE:1POPC:1POPS (wt:wt:wt) vesicles with reconstituted lipidated Gβγ; 3.4 Å
Details: both partners purified

B1: Gαq, wild type, nonlipidated, bound to GDP-AlF4 (natural protein)
chain: MACCLSEEAKEARRINDEIERQLRRDKRDARRELKLLLLGTGESGKSTFIKQMRIIHGSGYSDEDKRGFTKLVYQNIFTAMQAMIRAMDTLKIPYKYEHNKAHAQLVREVDVEKVSAFENPYVDAIKSLWNDPGIQECYDRRREYQLSDSTKYYLNDLDRVADPAYLPTQQDVLRVRVPTTGIIEYPFDLQSVIFRMVDVGGQRSERRKWIHCFENVTSIMFLVALSEYDQVLVESDNENRMEESKALFRTIITYPWFQNSSVILFLNKKDLLEEKIMYSHLVDYFPEYDGPQRDAQAAREFILKMFVDLNPDSDKIIYSHFTCATDTENIRFVFAAVKDTILQLNLKEYNLV
notes: In the structures the N terminus is disordered until position 38; Construct limits, any chimeric N terminus, host and tags are described only in SI Appendix, Materials and Methods; also called wildtype Gαq; wild-type Gαq
  stoichiometry N: 1
